Experiments:
[1] = target: α-crystallin (bovine lens) (bovine (endogenous in calf lens)) (UniProt P02470)
[2] = target: α-crystallin (bovine lens) (bovine (endogenous in calf lens)) (UniProt P02470); remark: listed apart in the source

UniProt P02470, sequence (P02470 whole entry, chain 1 of 2): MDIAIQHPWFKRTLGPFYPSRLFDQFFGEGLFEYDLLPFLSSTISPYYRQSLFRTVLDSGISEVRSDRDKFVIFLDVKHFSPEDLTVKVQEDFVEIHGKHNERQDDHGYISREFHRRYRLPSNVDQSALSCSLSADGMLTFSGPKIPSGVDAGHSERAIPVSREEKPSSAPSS
UniProt P02470, sequence (P02510 whole entry, chain 2 of 2, further chain): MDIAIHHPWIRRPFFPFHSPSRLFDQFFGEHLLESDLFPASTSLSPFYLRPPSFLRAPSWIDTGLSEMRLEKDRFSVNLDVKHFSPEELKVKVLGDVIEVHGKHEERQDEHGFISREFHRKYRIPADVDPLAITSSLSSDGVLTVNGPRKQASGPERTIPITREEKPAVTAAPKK

precipitation of soluble α-crystallin from 200 µg of CLE after incubation with increasing amounts of peptide (up to 50 µg), 16 h, 37°C; supernatant analysed by MALS [1]: > 50%
Bis-ANS fluorescence (hydrophobicity) of α-crystallin (100 µg) with 10 or 20 µg of peptide, 50 mM phosphate buffer pH 7.2, 60 min [2]: 30%
Substance: αA-(66-80) peptide

— publication PMC3084282
